Data published in PMC7954794, “Protein context shapes the specificity of SH3 domain-mediated interactions in vivo” (Nature Communications, 2021).

Tested on: Sla1 PPIs
Experiment: DHFR-PCA of Sla1 SH3-swapped, -shuffled or -deleted baits (Fig. 2E, 4B, 4D, S5A)
Format: cell-based, Saccharomyces cerevisiae
From the text: The stuffing of YSC84 SH3 rendered the strain sterile and was therefore not used for this study as the assays require crosses. For genes containing two SH3s (BZZ1 and BEM1), a combination of this first stuffer with a second one ([…]) coding for a highly similar linker ([…]) was used, which allowed targeting each SH3 position independently. The two N-terminal domains of SLA1, which are separated by six nucleotides, were stuffed by a single stuffer. Cells containing pCAS were selected via the G418 resistance cassette from the plasmid on YPD plates (YPD + NAT 100 μg/ml (DHFR F[1,2] selection) + G418 200 µg/mL (Bioshop Canada)). Colonies were randomly selected and grown in YPD media without G418 to allow plasmid loss. The correct insertion of the stuffer was validated by PCR and Sanger sequencing. The SH3-swapped, -shuffled, and -mutated strains were constructed following a second CRISPR–Cas9 editing step with the same procedures. The stuffer sequences were targeted by specific gRNAs (one gRNA per stuffer) and replaced by PCR amplified specific SH3 (with 40 bp homology arms) or libraries of mutated SH3 domains for Deep Mutational Scanning (DMS) with 78 bp flanking homology regions. Validation of the SH3 domain insertions was done as we previously described except for DMS libraries (see below).
The overall DHFR-PCA pipeline is based on Tarassov et al.[43] and the procedures have also been published as a visualized protocol. The screens were performed with robotically manipulated pin tools (BM5-SC1, S&P Robotics Inc.). First, the preys were cherry-picked from 96-well plates to omnitrays in a 384 format on YPD + HPH solid media. Plates were then combined into the 1536 format on YPD + HPH. The array was constituted of 575 preys previously shown to interact physically with at least one SH3-containing protein as reported in BioGRID V3.4.16 along with 40 negative controls. The prey array comprised a border of control strains of two rows and two columns corresponding to the PPI between LSM8-DHFR F[1,2] and CDC39-DHFR F[3]. This double border was used to remove border effects. Preys are present in duplicate at a randomized position in the 1536 array (except for YAL041W which is present four times per array). Baits were crossed with two prey plates, resulting in four independent bait–prey tests for each PPI. Baits were grown in liquid YPD + NAT and then transferred on solid YPD + NAT omnitrays. They were then replicated on YPD + NAT omnitrays in 1536 array format. Mating of DHFR F[1,2] baits with DHFR F[3] preys was done on YPD followed by incubation at 30 °C for 48 h. Two diploid selection steps were performed by replicating the plates on YPD + NAT + HPH and incubating them for 48 h at 30 °C. Pictures were taken at the end of the second diploid selection for quality control. All images were acquired with a EOS Rebel T5i camera (Canon). Finally, the diploid cells were replicated on omnitrays containing solid PCA selection media and incubated for 4 days as a first selection step in a spImager custom robotic platform (S&P Robotics Inc.). Cells were replicated for a second PCA selection step and incubated in the same manner. The last time point of the second PCA selection step was used for the data analysis as in previous studies using this method.
A separate DHFR-PCA screen was performed for the Sla1 SH3 shuffling experiment, with the same analysis as previously described. Three plates had no detectable level of background, which correspond to the second plate of the three Sla1 SH3 WT re-insertion controls. They were attributed the average of the background of the three first plates of the same baits. The threshold was also determined based on the distribution of the PCA scores of all PPIs and corresponds to the top 2.75% of all colonies detected in this experiment. […] Almost all true PPIs are from four replicates (96.2%). […]

B1: SLA1 WT¦WT¦WT (protein, UniProt P32790 1-1244, looked up)
Actin cytoskeleton-regulatory …: MTVFLGIYRAVYAYEPQTPEELAIQEDDLLYLLQKSDIDDWWTVKKRVIGSDSEEPVGLVPSTYIEEAPVLKKVRAIYDYEQVQNADEELTFHENDVFDVFDDKDADWLLVKSTVSNEFGFIPGNYVEPENGSTSKQEQAPAAAEAPAATPAAAPASAAVLPTNFLPPPQHNDRARMMQSKEDQAPDEDEEGPPPAMPARPTATTETTDATAAAVRSRTRLSYSDNDNDDEEDDYYYNSNSNNVGNHEYNTEYHSWNVTEIEGRKKKKAKLSIGNNKINFIPQKGTPHEWSIDKLVSYDNEKKHMFLEFVDPYRSLELHTGNTTTCEEIMNIIGEYKGASRDPGLREVEMASKSKKRGIVQYDFMAESQDELTIKSGDKVYILDDKKSKDWWMCQLVDSGKSGLVPAQFIEPVRDKKHTESTASGIIKSIKKNFTKSPSRSRSRSRSKSNANASWKDDELQNDVVGSAAGKRSRKSSLSSHKKNSSATKDFPNPKKSRLWVDRSGTFKVDAEFIGCAKGKIHLHKANGVKIAVAADKLSNEDLAYVEKITGFSLEKFKANDGSSSRGTDSRDSERERRRRLKEQEEKERDRRLKERELYELKKARELLDEERSRLQEKELPPIKPPRPTSTTSVPNTTSVPPAESSNNNNSSNKYDWFEFFLNCGVDVSNCQRYTINFDREQLTEDMMPDINNSMLRTLGLREGDIVRVMKHLDKKFGRENIASIPTNATGNMFSQPDGSLNVATSPETSLPQQLLPQTTSPAQTAPSTSAETDDAWTVKPASKSESNLLSKKSEFTGSMQDLLDLQPLEPKKAAASTPEPNLKDLEPVKTGGTTVPAAPVSSAPVSSAPAPLDPFKTGGNNILPLSTGFVMMPMITGGDMLPMQRTGGFVVPQTTFGMQSQVTGGILPVQKTGNGLIPISNTGGAMMPQTTFGAAATVLPLQKTGGGLIPIATTGGAQFPQTSFNVQGQQQLPTGSILPVQKTANGLISANTGVSMPTVQRTGGTMIPQTSFGVSQQLTGGAMMTQPQNTGSAMMPQTSFNAVPQITGGAMMPQTSFNALPQVTGGAMMPLQRTGGALNTFNTGGAMIPQTSFSSQAQNTGGFRPQSQFGLTLQKTGGIAPLNQNQFTGGAMNTLSTGGVLQQQQPQTMNTFNTGGVMQELQMMTTFNTGGAMQQPQMMNTFNTDGIMQQPQMMNTFNTGGAMQQPQQQALQNQPTGFGFGNGPQQSRQANIFNATASNPFGF
With B1 the “medrep = log2 median colony size normalized to plate background (PCA score)” value (prey YAL005C, 4 replicates) was 4.576, the “medrep = log2 median colony size normalized to plate background (PCA score)” value (prey YAL005C, 4 replicates, listed as SLA1 WT¦WT¦WT*) was 5.708 and the “medrep = log2 median colony size normalized to plate background (PCA score)” value (prey YBL007C, 4 replicates) was 3.858. For the same molecule, the “medrep = log2 median colony size normalized to plate background (PCA score)” value (prey YBL007C, 4 replicates, listed as SLA1 WT¦WT¦WT*) was 4.787, the “medrep = log2 median colony size normalized to plate background (PCA score)” value (prey YBR234C, 4 replicates) was 4.193 and the “medrep = log2 median colony size normalized to plate background (PCA score)” value (prey YBR234C, 4 replicates, listed as SLA1 WT¦WT¦WT*) was 5.208. The “medrep = log2 median colony size normalized to plate background (PCA score)” value (prey YCR009C, 2 replicates) was 2.175, the “medrep = log2 median colony size normalized to plate background (PCA score)” value (prey YCR030C, 4 replicates) was 2.158 and the “medrep = log2 median colony size normalized to plate background (PCA score)” value (prey YCR088W, 4 replicates) was 3.971. For the same molecule, the “medrep = log2 median colony size normalized to plate background (PCA score)” value (prey YCR088W, 4 replicates, listed as SLA1 WT¦WT¦WT*) was 4.931, the “medrep = log2 median colony size normalized to plate background (PCA score)” value (prey YDL229W, 4 replicates) was 4.158 and the “medrep = log2 median colony size normalized to plate background (PCA score)” value (prey YDL229W, 4 replicates, listed as SLA1 WT¦WT¦WT*) was 5.378. The “medrep = log2 median colony size normalized to plate background (PCA score)” value (prey YDR129C, 4 replicates) was 3.756, the “medrep = log2 median colony size normalized to plate background (PCA score)” value (prey YDR129C, 4 replicates, listed as SLA1 WT¦WT¦WT*) was 4.737 and the “medrep = log2 median colony size normalized to plate background (PCA score)” value (prey YFL010C, 2 replicates) was 3.147. The “medrep = log2 median colony size normalized to plate background (PCA score)” value (prey YFR024C-A, 4 replicates) was 3.943, the “medrep = log2 median colony size normalized to plate background (PCA score)” value (prey YFR024C-A, 4 replicates, listed as SLA1 WT¦WT¦WT*) was 4.815 and the “medrep = log2 median colony size normalized to plate background (PCA score)” value (prey YGL206C, 4 replicates) was 3.77. The “medrep = log2 median colony size normalized to plate background (PCA score)” value (prey YGL206C, 4 replicates, listed as SLA1 WT¦WT¦WT*) was 4.526, the “medrep = log2 median colony size normalized to plate background (PCA score)” value (prey YGR229C, 4 replicates) was 2.045 and the “medrep = log2 median colony size normalized to plate background (PCA score)” value (prey YHR016C, 4 replicates) was 3.008. For the same molecule, the “medrep = log2 median colony size normalized to plate background (PCA score)” value (prey YHR016C, 4 replicates, listed as SLA1 WT¦WT¦WT*) was 3.247, the “medrep = log2 median colony size normalized to plate background (PCA score)” value (prey YHR064C, 4 replicates) was 3.59 and the “medrep = log2 median colony size normalized to plate background (PCA score)” value (prey YHR064C, 4 replicates, listed as SLA1 WT¦WT¦WT*) was 4.449. The “medrep = log2 median colony size normalized to plate background (PCA score)” value (prey YIL062C, 4 replicates) was 3.558, the “medrep = log2 median colony size normalized to plate background (PCA score)” value (prey YIL062C, 4 replicates, listed as SLA1 WT¦WT¦WT*) was 4.388 and the “medrep = log2 median colony size normalized to plate background (PCA score)” value (prey YIR006C, 4 replicates) was 3.754. For the same molecule, the “medrep = log2 median colony size normalized to plate background (PCA score)” value (prey YIR006C, 4 replicates, listed as SLA1 WT¦WT¦WT*) was 4.634, the “medrep = log2 median colony size normalized to plate background (PCA score)” value (prey YKL013C, 4 replicates) was 3.269 and the “medrep = log2 median colony size normalized to plate background (PCA score)” value (prey YKL013C, 4 replicates, listed as SLA1 WT¦WT¦WT*) was 3.776. For the same molecule, the “medrep = log2 median colony size normalized to plate background (PCA score)” value (prey YKL054C, 4 replicates) was 2.47, the “medrep = log2 median colony size normalized to plate background (PCA score)” value (prey YKL054C, 4 replicates, listed as SLA1 WT¦WT¦WT*) was 3.124 and the “medrep = log2 median colony size normalized to plate background (PCA score)” value (prey YKL117W, 4 replicates) was 3.846. The “medrep = log2 median colony size normalized to plate background (PCA score)” value (prey YKL117W, 4 replicates, listed as SLA1 WT¦WT¦WT*) was 4.725, the “medrep = log2 median colony size normalized to plate background (PCA score)” value (prey YKL129C, 4 replicates) was 2.117 and the “medrep = log2 median colony size normalized to plate background (PCA score)” value (prey YLR337C, 4 replicates) was 3.738. For the same molecule, the “medrep = log2 median colony size normalized to plate background (PCA score)” value (prey YLR337C, 4 replicates, listed as SLA1 WT¦WT¦WT*) was 4.734, the “medrep = log2 median colony size normalized to plate background (PCA score)” value (prey YLR370C, 4 replicates) was 3.494 and the “medrep = log2 median colony size normalized to plate background (PCA score)” value (prey YLR370C, 4 replicates, listed as SLA1 WT¦WT¦WT*) was 4.461. For the same molecule, the “medrep = log2 median colony size normalized to plate background (PCA score)” value (prey YMR109W, 4 replicates) was 2.836, the “medrep = log2 median colony size normalized to plate background (PCA score)” value (prey YMR109W, 4 replicates, listed as SLA1 WT¦WT¦WT*) was 3.116 and the “medrep = log2 median colony size normalized to plate background (PCA score)” value (prey YNL084C, 4 replicates) was 3.76. For the same molecule, the “medrep = log2 median colony size normalized to plate background (PCA score)” value (prey YNL084C, 4 replicates, listed as SLA1 WT¦WT¦WT*) was 4.641, the “medrep = log2 median colony size normalized to plate background (PCA score)” value (prey YNL138W, 4 replicates) was 2.038 and the “medrep = log2 median colony size normalized to plate background (PCA score)” value (prey YNL243W, 4 replicates) was 3.418. The “medrep = log2 median colony size normalized to plate background (PCA score)” value (prey YNL243W, 4 replicates, listed as SLA1 WT¦WT¦WT*) was 4.392, the “medrep = log2 median colony size normalized to plate background (PCA score)” value (prey YOR181W, 4 replicates) was 3.933 and the “medrep = log2 median colony size normalized to plate background (PCA score)” value (prey YOR181W, 4 replicates, listed as SLA1 WT¦WT¦WT*) was 4.903.
